This is an account of results in PMC5496915, “Interactions between LHX3- and ISL1-family LIM-homeodomain transcription factors are conserved in Caenorhabditis elegans” (Scientific Reports, 2017).

The assay addresses T1, CEH-14_(LIM1+2) as it stands in the tethered CEH-14–LIM-7 complex (C. elegans, UniProt P20271 42-168).
T1 construct: CEH-14, C. elegans, tandem LIM domains LIM1+2, residues 42-168; Joined on one chain with m29 through an 11-residue Gly/Ser linker; the whole chain is m27; also called LIM domains from CEH-14
T1 sequence (looked up): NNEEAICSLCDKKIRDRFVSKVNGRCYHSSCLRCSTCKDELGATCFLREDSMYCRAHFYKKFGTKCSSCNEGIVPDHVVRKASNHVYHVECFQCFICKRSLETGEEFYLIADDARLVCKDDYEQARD
Briefly: SAXS; tethered complex on one chain, 5.2 mg/mL, 50 mM Tris, 100 mM NaCl, 5 mM TCEP pH 8.0 (the legend says 20 mM Tris pH 8.0, 150 mM NaCl, 1 mM TCEP), 10 °C; low-resolution shape restoration. The note with it: both partners purified.

B1: LIM-7LID as it stands in the tethered CEH-14–LIM-7 complex (domain or fragment, C. elegans)
chain: GIGPLMVQPATPHIDNTLGGPIDIQHFAQW
notes: Joined on one chain with m28 through an 11-residue Gly/Ser linker; the whole chain is m27; also called LID from LIM-7
As for B1, the binding result is “binds”.
